The values below come from patent US20060111296A1 (DYAX, published 2006).

This assay deals with T1, plasmin (human, UniProt P00747 97-810, limits assumed).
T1 construct: Active plasmin is a two-chain, disulfide-linked form of plasminogen; also called human plasmin
Put plainly: inhibition constant for human plasmin; method not described.

T1 sequence (P00747 97-810 limits assumed): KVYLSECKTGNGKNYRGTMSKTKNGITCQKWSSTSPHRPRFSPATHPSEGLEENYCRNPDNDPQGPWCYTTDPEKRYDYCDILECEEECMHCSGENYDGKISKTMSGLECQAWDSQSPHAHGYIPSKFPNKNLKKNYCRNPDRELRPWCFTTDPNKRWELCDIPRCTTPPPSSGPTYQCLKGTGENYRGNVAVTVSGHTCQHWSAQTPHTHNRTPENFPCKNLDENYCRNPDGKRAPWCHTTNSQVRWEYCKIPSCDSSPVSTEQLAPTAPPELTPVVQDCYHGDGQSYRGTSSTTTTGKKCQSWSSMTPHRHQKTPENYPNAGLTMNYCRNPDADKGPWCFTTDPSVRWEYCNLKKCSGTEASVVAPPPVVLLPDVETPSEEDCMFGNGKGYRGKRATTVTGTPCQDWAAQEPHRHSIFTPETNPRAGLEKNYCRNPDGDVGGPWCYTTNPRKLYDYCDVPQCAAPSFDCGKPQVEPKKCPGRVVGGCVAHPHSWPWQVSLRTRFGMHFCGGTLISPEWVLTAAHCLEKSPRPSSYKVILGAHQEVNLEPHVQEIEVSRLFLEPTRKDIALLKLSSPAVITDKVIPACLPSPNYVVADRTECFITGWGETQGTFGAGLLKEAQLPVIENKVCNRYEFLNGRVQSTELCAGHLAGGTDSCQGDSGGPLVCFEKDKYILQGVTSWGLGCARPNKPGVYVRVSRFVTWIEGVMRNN

B1: DX-1000 (designed binder)
chain: MHSFCAFKAETGPCRARFDRWFFNIFTRQCEEFIYGGCEGNQNRFESLEECKKMCTRD
notes: Engineered Kunitz domain on the human LACI-K1 framework; also called DX-1000 (unmodified)
A word on the Ki: it is the equilibrium dissociation constant of an inhibitor or competing ligand from its target. The molecule B1 came in with a Ki of 0.088 nM.
